Assay results from patent US20230357340A1.

Assays:
[1] = molecular target: recombinant human IL-18 (human) (UniProt Q14116); assay: cell-based or functional assay
[2] = molecular target: recombinant mouse IL-18 protein (mouse) (UniProt P70380)
Sequence of recombinant mouse IL-18 protein (mouse) (P70380 36-192 limits assumed): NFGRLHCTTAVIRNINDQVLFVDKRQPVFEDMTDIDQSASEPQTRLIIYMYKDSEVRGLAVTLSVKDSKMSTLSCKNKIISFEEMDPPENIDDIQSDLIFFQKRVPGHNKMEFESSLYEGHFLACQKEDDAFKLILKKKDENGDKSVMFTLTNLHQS

Sequence of recombinant human IL-18 (human) (Q14116 37-193 limits assumed): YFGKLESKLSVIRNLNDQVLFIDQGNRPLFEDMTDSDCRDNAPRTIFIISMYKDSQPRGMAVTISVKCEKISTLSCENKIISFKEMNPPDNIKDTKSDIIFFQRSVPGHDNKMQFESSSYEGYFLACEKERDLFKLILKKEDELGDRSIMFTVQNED

IC50 of inhibition of IL-18-induced IFN-γ production in KG-1 cells [1] [nM] | IC50 (read off the curve); mouse IL-18-induced IFN-γ secretion by mouse CD4+ T cells [2] [nM] | Substance
0.024 | 0.3 | recombinant human interleukin-18-binding protein with C-terminal His-tag (hIL18BP-his8) (from UniProt O95998 31-194)
– | 1 | hIL18BP-His(SinoBio.) (from UniProt O95998)
